In patent US20100310509A1 (published 2010):
Each block holds one binder with its values, some of them ahead of it.

Key:
[1] = biological target: T1, soluble gp130 (R&D Systems # 228-GP-050/CF) (UniProt P40189 23-619, limits assumed); assay: SPR (SensiQ), cytokine immobilised, soluble gp130 as analyte, 1:1 model
T1 construct: extracellular domain; Bought
T1 sequence (looked up): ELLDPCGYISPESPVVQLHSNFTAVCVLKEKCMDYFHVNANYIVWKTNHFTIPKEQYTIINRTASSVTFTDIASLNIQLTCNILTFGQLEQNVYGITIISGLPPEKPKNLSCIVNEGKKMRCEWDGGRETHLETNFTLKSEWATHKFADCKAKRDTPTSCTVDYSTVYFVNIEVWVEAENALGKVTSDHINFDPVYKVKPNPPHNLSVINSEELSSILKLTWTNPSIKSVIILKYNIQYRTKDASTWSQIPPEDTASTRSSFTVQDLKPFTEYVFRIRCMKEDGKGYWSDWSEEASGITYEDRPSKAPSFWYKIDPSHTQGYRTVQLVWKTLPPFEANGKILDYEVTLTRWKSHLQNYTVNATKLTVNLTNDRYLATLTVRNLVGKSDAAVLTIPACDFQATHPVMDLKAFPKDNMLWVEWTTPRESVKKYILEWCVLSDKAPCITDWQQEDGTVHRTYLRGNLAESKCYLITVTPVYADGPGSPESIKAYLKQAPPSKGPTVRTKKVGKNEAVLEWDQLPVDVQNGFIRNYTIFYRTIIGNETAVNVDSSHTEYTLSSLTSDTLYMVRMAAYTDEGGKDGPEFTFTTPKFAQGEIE
Experimental: (§1) Surface Plasmon Resonance (SPR): Kinetic parameters of the interactions between receptor domains and the cytokines LIF, OSM-WT, OSM-M1 or OSM-M2 were analyzed by SPR using the SENSIQ® system (ICX Technologies, Oklahoma City, Okla.) as described by the manufacturer protocol. Briefly, a carboxyl sensor with two channels was installed in SENSIQ® and allowed to thermally equilibrate for about 15 minutes. The channels were initially cleaned with a 3 minute injection of 0.1 M HCl. An activation solution of 2 mM 1-Ethyl-3-[3-dimethylaminopropyl]carbodiimide hydrochloride (EDC) and 0.5 mM N-hydroxysulfo succinimide (NHS) was prepared in deionized water immediately before injection. Activation solution was injected over both channels for approximately 3 minutes followed by a 10 minute injection of 50 μg/mL cytokine (LIF, OSM-WT, OSM-M1 or OSM-M2) in 10 mM acetate buffer, pH 5.0, over channel 1. […] Unreacted NHS esters were capped with a 3 minute injection of 1 M ethanolamine, pH 8.0, over both channels. […] A concentration series of soluble LIFR (# 249-LR-050/CF, R&D Systems, Minneapolis, Minn.), soluble OSMR (# 4389-OR-50, R&D Systems, Minneapolis, Minn.) or soluble gp130 (# 228-GP-050/CF, R&D Systems, Minneapolis, Minn.) in running buffer (10 mM HEPES pH 7.4, 150 mM NaCl, 3.4 mM EDTA, 0.005% Tween-20) were injected over both channels at a flow rate of 25 μl/min. Following a dissociation period of 3 minutes, the surfaces were regenerated by injecting 10 mM NaOH for 30 seconds. Rate constants for association (kₐ) and dissociation (kd) rates were derived by global analysis of the response curves fit to a 1:1 kinetic model (Equations 1 and 2) using QDat software (BioLogic Software, Ltd. Knoxville Tenn. and Nomadics, Inc. Stillwater, Okla.) using 1:1 stoichiometry.
(§2) Reducing the size of the BC loop improves OSM's affinity towards LIFR and OSMR. […] To directly measure the binding kinetics of these ligand-receptor interactions, surface plasmon resonance (SPR) was used.

[2] = biological target: T2, soluble human LIFR (leukemia inhibitory factor receptor) (human, UniProt P42702 45-833); assay: SPR (SensiQ), cytokine immobilised, soluble LIFR as analyte, 1:1 model
T2 construct: extracellular domain; Bought; also called soluble LIFR
T2 sequence (looked up): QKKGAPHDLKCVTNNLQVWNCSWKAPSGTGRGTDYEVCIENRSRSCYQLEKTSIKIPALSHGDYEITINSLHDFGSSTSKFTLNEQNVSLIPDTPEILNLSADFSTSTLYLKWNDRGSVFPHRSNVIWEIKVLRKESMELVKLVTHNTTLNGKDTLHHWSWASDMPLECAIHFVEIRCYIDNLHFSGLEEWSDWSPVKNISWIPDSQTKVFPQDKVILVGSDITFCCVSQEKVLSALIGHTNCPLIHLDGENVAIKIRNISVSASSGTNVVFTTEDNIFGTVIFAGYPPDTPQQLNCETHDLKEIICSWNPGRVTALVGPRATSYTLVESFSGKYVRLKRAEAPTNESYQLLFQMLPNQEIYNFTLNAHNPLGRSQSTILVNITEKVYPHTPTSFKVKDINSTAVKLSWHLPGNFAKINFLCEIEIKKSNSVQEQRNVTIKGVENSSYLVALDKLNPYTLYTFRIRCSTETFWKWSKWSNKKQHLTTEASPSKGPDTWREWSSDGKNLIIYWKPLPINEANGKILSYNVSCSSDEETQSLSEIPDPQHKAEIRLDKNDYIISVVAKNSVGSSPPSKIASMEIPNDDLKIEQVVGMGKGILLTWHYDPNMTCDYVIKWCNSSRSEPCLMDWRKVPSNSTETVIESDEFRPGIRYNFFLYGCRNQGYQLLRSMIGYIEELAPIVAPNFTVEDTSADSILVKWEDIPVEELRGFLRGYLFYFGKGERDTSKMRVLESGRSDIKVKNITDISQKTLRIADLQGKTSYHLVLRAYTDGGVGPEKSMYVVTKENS
Experimental: as §1, §2

Kd [1]: 72.4 nM
koff [1]: 0.00533 s⁻¹
kon [1]: 74000 M⁻¹ s⁻¹
Kd [2]: 3.1 nM
koff [2]: 0.0023 s⁻¹
kon [2]: 740000 M⁻¹ s⁻¹
B1: human leukemia inhibitory factor (LIF) (ligand)
chain: not shown
notes: Purified recombinant protein; also called hLIF

Kd [1]: 22.7 nM
koff [1]: 0.0047 s⁻¹
kon [1]: 207000 M⁻¹ s⁻¹
Kd [2]: 43.8 nM
koff [2]: 0.004 s⁻¹
kon [2]: 91000 M⁻¹ s⁻¹
B2: OSM-WT ('AGA' modified human Oncostatin M, referred to as wild-type OSM) (ligand)
chain: AAIGSCSKEYRVLLGQLQKQTDLMQDTSRLLDPYIRIQGLDVPKLREHCRERPGAFPSEETLRGLGRRGFLQTLNATLGCVLHRLADLEQRLPKAQDLERSGLNIEDLEKLQMARPNILGLRNNIYCMAQLLDNSDTAEPTKAGAGASQPPTPTPASDAFQRKLEGCRFLHGYHRFMHSVGRVFSKWGESPN
notes: also called hOSM with AGA modification; not shown: N-terminal FLAG tag left after thrombin removal of GST

Kd [1]: 21.5 nM
koff [1]: 0.00487 s⁻¹
kon [1]: 227000 M⁻¹ s⁻¹
Kd [2]: 2.74 nM
koff [2]: 0.00356 s⁻¹
kon [2]: 1.3e+06 M⁻¹ s⁻¹
B3: OSM-M2 (OSM with BC loop truncated from 12 to 4 amino acids) (ligand)
chain: AAIGSCSKEYRVLLGQLQKQTDLMQDTSRLLDPYIRIQGLDVPKLREHCRERPGAFPSEETLRGLGRRGFLQTLNATLGCVLHRLADLEQRLGGGNIEDLEKLQMARPNILGLRNNIYCMAQLLDNSDTAEPTKAGAGASQPPTPTPASDAFQRKLEGCRFLHGYHRFMHSVGRVFSKWGESPN
notes: Made from the 'AGA' modified OSM template; lacks the thrombin site; not shown: N-terminal FLAG tag left after thrombin removal of GST

Kd [1]: 26.3 nM
koff [1]: 0.00534 s⁻¹
kon [1]: 203000 M⁻¹ s⁻¹
Kd [2]: 7.62 nM
koff [2]: 0.00252 s⁻¹
kon [2]: 331000 M⁻¹ s⁻¹
B4: OSM-M1 (OSM with BC loop truncated from 12 to 7 amino acids) (ligand)
chain: AAIGSCSKEYRVLLGQLQKQTDLMQDTSRLLDPYIRIQGLDVPKLREHCRERPGAFPSEETLRGLGRRGFLQTLNATLGCVLHRLADLEQRLGAPSGLNIEDLEKLQMARPNILGLRNNIYCMAQLLDNSDTAEPTKAGAGASQPPTPTPASDAFQRKLEGCRFLHGYHRFMHSVGRVFSKWGESPN
notes: as for B3
